Assay results: patent US20250250357A1 (NANJING ZAIMING PHARMACEUTICAL, published 2025)
Positions count from the first letter of the chain named.

Experiments:
[1] = target: T1, human MSLN-R1-his protein (human, UniProt Q13421 296-390); assay: ELISA on coated antigen, antibody 100 nM
T1 construct: Self-made in HEK293E cells; also called human MSLN-R1 protein; hMSLN-R1-his; not shown: His tag
T1 chain: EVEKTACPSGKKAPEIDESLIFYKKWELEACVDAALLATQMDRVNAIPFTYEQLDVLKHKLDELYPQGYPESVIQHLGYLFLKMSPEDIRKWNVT

[2] = target: T2, human MSLN-FL-his protein (human, UniProt Q13421 296-580); assay: ELISA on coated antigen, antibody 0.1 nM
T2 construct: Self-made in HEK293E cells; also called human MSLN full-length protein; hMSLN-FL-his; not shown: His tag

[3] = target: T2, human MSLN-FL-his protein; assay: ELISA on coated antigen, antibody 1 nM
Procedure: (§1) The plate was sealed with a plastic film and incubated at 4° C. overnight. The next day, the plate was washed twice with PBST, and a blocking buffer [PBS+2% (w/w) BSA] was added for blocking at room temperature for 2 h. The blocking buffer was discarded, and a chimeric antibody or negative control antibody serially diluted from 100 nM was added at 50 μL/well. After incubation at 37° C. for 2 h, the plate was washed 3 times with PBST. […] After incubation at 37° C. for 2 h, the plate was washed 5 times with PBST. A TMB substrate was added at 50 μL/well for incubation at room temperature for 5-10 min, and then a stop solution (1.0 N HCl) was added at 50 μL/well.

[4] = target: T2, human MSLN-FL-his protein; assay: ELISA on coated antigen, antibody 0.001 nM
Procedure: as §1

[5] = target: T1, human MSLN-R1-his protein; assay: ELISA on coated antigen, no antibody (column none)
Procedure: as §1

[6] = target: T1, human MSLN-R1-his protein; assay: ELISA on coated antigen, antibody 0.0001 nM
Procedure: as §1

[7] = target: T2, human MSLN-FL-his protein; assay: ELISA on coated antigen, antibody 100 nM
Procedure: as §1

[8] = target: T2, human MSLN-FL-his protein; assay: ELISA on coated antigen, no antibody (column none)
Procedure: as §1

[9] = target: T1, human MSLN-R1-his protein; assay: ELISA on coated antigen, antibody 10 nM
Procedure: as §1

[10] = target: T1, human MSLN-R1-his protein; assay: ELISA on coated antigen, antibody 1 nM
Procedure: as §1

[11] = target: T1, human MSLN-R1-his protein; assay: ELISA on coated antigen, antibody 0.001 nM
Procedure: as §1

[12] = target: T2, human MSLN-FL-his protein; assay: ELISA on coated antigen, antibody 0.01 nM
Procedure: as §1

[13] = target: T2, human MSLN-FL-his protein; assay: ELISA on coated antigen, antibody 10 nM
Procedure: as §1

[14] = target: T2, human MSLN-FL-his protein; assay: ELISA on coated antigen, antibody 0.0001 nM
Procedure: as §1

[15] = target: T1, human MSLN-R1-his protein; assay: ELISA on coated antigen, antibody 0.01 nM
Procedure: as §1

[16] = target: T1, human MSLN-R1-his protein; assay: ELISA on coated antigen, antibody 0.1 nM
Procedure: as §1

B1: S009-F3.16.1 (antibody, human IgG1, kappa, V domains shown)
VH: EVKFEESGGGLVQPGGSMKLSCVASGFTFSNYWMNWVRQSPEKGLEWVAQIRLKSDNYATHYAESVKGRFSISRDDSKSSVYLQMNNLRAEDTGIYYCSVGTGGYWGQGTTLTVSS
VL: DIVLTQSPASLALSPGKRATISCRASESVSIIGTDVIHWFQQKPGQPPKLLIYHASNLETGVPARFSGSGSRTDFTLTIDPVEEDDVAIYYCLQSRKIPWTFGGGTKLEIKR
notes: Human-murine chimeric antibody: murine VH/VL on human IgG1 heavy and kappa light constant regions
[1]
  OD450: 0.1 OD450
[2]
  OD450: 0.08 OD450
[3]
  OD450: 0.08 OD450
[4]
  OD450: 0.06 OD450
[5]
  OD450: 0.08 OD450
[6]
  OD450: 0.07 OD450
[7]
  OD450: 0.12 OD450
[8]
  OD450: 0.08 OD450
[9]
  OD450: 0.08 OD450
[10]
  OD450: 0.06 OD450
[11]
  OD450: 0.07 OD450
[12]
  OD450: 0.07 OD450
[13]
  OD450: 0.11 OD450
[14]
  OD450: 0.06 OD450
[15]
  OD450: 0.06 OD450
[16]
  OD450: 0.07 OD450

B2: S009-F3.23.1 (antibody, human IgG1, kappa, V domains shown)
VH: QVQLQQSGADLVRPGASVTLSCKASGYTFTDYEMHWVKQTPVHGLEWIGAIDPETGDTVYNQNFKGKAILTADKSSSTAYMELRSLTSEDSAVYYCTRYGYDWGWGQGTTLTVSS
VL: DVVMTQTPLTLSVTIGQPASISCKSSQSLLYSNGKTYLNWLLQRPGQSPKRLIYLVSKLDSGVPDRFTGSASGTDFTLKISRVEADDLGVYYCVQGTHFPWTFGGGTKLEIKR
notes: as for B1
[1]
  OD450: 0.08 OD450
[2]
  OD450: 1.76 OD450
[3]
  OD450: 1.98 OD450
[4]
  OD450: 0.15 OD450
[5]
  OD450: 0.07 OD450
[6]
  OD450: 0.07 OD450
[7]
  OD450: 2.39 OD450
[8]
  OD450: 0.07 OD450
[9]
  OD450: 0.06 OD450
[10]
  OD450: 0.06 OD450
[11]
  OD450: 0.06 OD450
[12]
  OD450: 0.7 OD450
[13]
  OD450: 2.11 OD450
[14]
  OD450: 0.07 OD450
[15]
  OD450: 0.06 OD450
[16]
  OD450: 0.06 OD450

B3: S009-F3.38.10 (antibody, human IgG1, kappa, V domains shown)
VH: EVQLQQSGPVLVKPGASVKMSCEASGYIFTDYYMNWVKKSHGKSLEWIGVINPKNGVISHNQKFKGKATLTVDKSSNTAYMELSSLTSEDSAVYYCANYGSRFYAMDYWGQGTSVTVSS
VL: DVVMTQTPLSLPVSLGDQASISCRSSQSLIHSDGNTYLQWYLQKSGQSPKLLIYKVSNRFSGVPDRFSGSGSGTDFTLKISRVETEDLGVYFCSQTTHVPFTFGSGTKLEIKR
notes: as for B1
[1]
  OD450: 0.11 OD450
[2]
  OD450: 0.07 OD450
[3]
  OD450: 0.07 OD450
[4]
  OD450: 0.06 OD450
[5]
  OD450: 0.07 OD450
[6]
  OD450: 0.07 OD450
[7]
  OD450: 0.1 OD450
[8]
  OD450: 0.07 OD450
[9]
  OD450: 0.07 OD450
[10]
  OD450: 0.06 OD450
[11]
  OD450: 0.07 OD450
[12]
  OD450: 0.07 OD450
[13]
  OD450: 0.06 OD450
[14]
  OD450: 0.06 OD450
[15]
  OD450: 0.06 OD450
[16]
  OD450: 0.06 OD450

B4: S009-F3.45.21 (antibody, human IgG1, kappa, V domains shown)
VH: DVQLQESGPGLVKPSQSLSLTCSVTGDSITSGYYWNWIRQFPGNKLEWMGFIRFDGTNNYNPSLKNRISITRDTSKNQFFLKLNSVTTEDTATYYCAREGSYAPAWFAYWGQGTLVTVSA
VL: QIVLTQSPAIMSASPGEKVTMTCSASSSLSYMYWYQQKPGSSPRLLIYDTSNLASGVPVRFSGSGSGTSYSLTISRMEAEDAATYYCQQWSSYPPTFGGGTKLEIKR
notes: as for B1
[1]
  OD450: 0.65 OD450
[2]
  OD450: 1.63 OD450
[3]
  OD450: 1.75 OD450
[4]
  OD450: 0.35 OD450
[5]
  OD450: 0.07 OD450
[6]
  OD450: 0.06 OD450
[7]
  OD450: 2.23 OD450
[8]
  OD450: 0.08 OD450
[9]
  OD450: 0.11 OD450
[10]
  OD450: 0.06 OD450
[11]
  OD450: 0.06 OD450
[12]
  OD450: 0.69 OD450
[13]
  OD450: 1.8 OD450
[14]
  OD450: 0.1 OD450
[15]
  OD450: 0.06 OD450
[16]
  OD450: 0.05 OD450

B5: S009-F3.51.8 (antibody, human IgG1, kappa, V domains shown)
VH: QVQLQQSGAELVRPGASVTLSCKASGYTFTDYEMHWVKQTPVHGLEWIGGFDPETGGTAHNQKFKGKAILTADKSSSTAYMELRSLTSEDSAVYYCSNYGSIWGDCWGQGTSVTVSS
VL: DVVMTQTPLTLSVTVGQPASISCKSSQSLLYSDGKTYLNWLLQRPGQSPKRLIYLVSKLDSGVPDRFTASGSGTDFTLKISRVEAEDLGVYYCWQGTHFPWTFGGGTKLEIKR
notes: Human-murine chimeric antibody on human IgG1/kappa constant regions
[1]
  OD450: 0.07 OD450
[2]
  OD450: 1.68 OD450
[3]
  OD450: 1.93 OD450
[4]
  OD450: 0.14 OD450
[5]
  OD450: 0.07 OD450
[6]
  OD450: 0.07 OD450
[7]
  OD450: 2.58 OD450
[8]
  OD450: 0.08 OD450
[9]
  OD450: 0.06 OD450
[10]
  OD450: 0.06 OD450
[11]
  OD450: 0.07 OD450
[12]
  OD450: 0.63 OD450
[13]
  OD450: 2.06 OD450
[14]
  OD450: 0.07 OD450
[15]
  OD450: 0.07 OD450
[16]
  OD450: 0.06 OD450

B6: S009-F3-63.5 (antibody, human IgG1, kappa, V domains shown)
VH: QVQLQQSGAELVRPGASVTLSCKASGYTFTDYEMHWVKQTPVHGLEWIGGIDPETGDTAYNQQFKGKAILTADRSSSTAYMELRSLTSEDSAVYYCTNYASSREDYWGQGTTLTVSS
VL: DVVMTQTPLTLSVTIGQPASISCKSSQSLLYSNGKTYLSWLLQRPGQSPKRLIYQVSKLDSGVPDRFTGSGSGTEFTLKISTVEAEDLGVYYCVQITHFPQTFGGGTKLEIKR
notes: as for B1
[1]
  OD450: 0.09 OD450
[2]
  OD450: 1.72 OD450
[3]
  OD450: 1.99 OD450
[4]
  OD450: 0.14 OD450
[5]
  OD450: 0.06 OD450
[6]
  OD450: 0.05 OD450
[7]
  OD450: 2.76 OD450
[8]
  OD450: 0.06 OD450
[9]
  OD450: 0.07 OD450
[10]
  OD450: 0.06 OD450
[11]
  OD450: 0.05 OD450
[12]
  OD450: 0.62 OD450
[13]
  OD450: 2.15 OD450
[14]
  OD450: 0.06 OD450
[15]
  OD450: 0.05 OD450
[16]
  OD450: 0.05 OD450

B7: S009-F3.74.20 (antibody, human IgG1, kappa, V domains shown)
VH: RVQLQQSGAELVRPGASVTLSCKASGYTFTDSEMHWVKQTPVHGLEWIGAIDPEIDGTAYNQNFRDKAILTADKSSSTAYMELRSLTSEDSAVYYCTTYFGSGYGYFDVWGTGTTVTVSS
VL: DVVMTQTPLSLSVSLGDQASISCRSSQSLVYSNGNTYLHWFLQKPGQSPKLLIYKVSNRFSGVPDRFSGSGSGTDFTLKINRVEAEDLGVYFCSQSTHIPFTFGAGTKLELKR
notes: as for B1
[1]
  OD450: 0.11 OD450
[2]
  OD450: 1.59 OD450
[3]
  OD450: 1.88 OD450
[4]
  OD450: 0.11 OD450
[5]
  OD450: 0.07 OD450
[6]
  OD450: 0.06 OD450
[7]
  OD450: 2.17 OD450
[8]
  OD450: 0.08 OD450
[9]
  OD450: 0.08 OD450
[10]
  OD450: 0.07 OD450
[11]
  OD450: 0.06 OD450
[12]
  OD450: 0.42 OD450
[13]
  OD450: 1.97 OD450
[14]
  OD450: 0.07 OD450
[15]
  OD450: 0.06 OD450
[16]
  OD450: 0.06 OD450

B8: S009-F3.80.22 (antibody, human IgG1, kappa, V domains shown)
VH: QVQLQQSGAELVRPGASVTLSCKASGYTFTDYEIHWVKQTPVHGLEWIGAFDPEIGGSAYNQKFKDRATLTADKSSSTAYMELHSLTAEDSAVYYCTDYYGSSSGYFDVWGTGTTVTVSS
VL: B3 VL with I30E, S32N, D33N, Q39H, Y41F, Q43H, S45P, T85A, T96S
notes: as for B1
[1]
  OD450: 0.07 OD450
[2]
  OD450: 1.71 OD450
[3]
  OD450: 1.97 OD450
[4]
  OD450: 0.14 OD450
[5]
  OD450: 0.06 OD450
[6]
  OD450: 0.06 OD450
[7]
  OD450: 2.31 OD450
[8]
  OD450: 0.07 OD450
[9]
  OD450: 0.06 OD450
[10]
  OD450: 0.05 OD450
[11]
  OD450: 0.06 OD450
[12]
  OD450: 0.69 OD450
[13]
  OD450: 1.99 OD450
[14]
  OD450: 0.07 OD450
[15]
  OD450: 0.06 OD450
[16]
  OD450: 0.06 OD450
